T1: FcγRIIb extracellular domain with C-terminal His tag (human, UniProt P31994 43-217)
T1 construct: extracellular domain; also called FcgRIIb; 2b
T1 sequence (looked up): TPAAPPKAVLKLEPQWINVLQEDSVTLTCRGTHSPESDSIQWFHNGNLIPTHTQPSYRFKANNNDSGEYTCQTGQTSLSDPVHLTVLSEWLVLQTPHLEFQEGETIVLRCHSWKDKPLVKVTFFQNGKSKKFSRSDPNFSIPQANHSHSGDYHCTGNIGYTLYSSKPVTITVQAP


These binders were tested against T1, FcγRIIb extracellular domain with … (assay: SPR (Biacore), relative binding).
Procedure: Analysis of interaction between objective antibody and the FcγR was carried out using Biacore T100 (GE Healthcare). HBS-EP+ (GE Healthcare) was used as the running buffer, and the measurement temperature was set to 25° C. Chips produced by immobilizing the antigen peptide by the amine coupling method to a Series S Sencor Chip CM5 (GE Healthcare), or alternatively, chips produced by allowing preliminarily biotinylated antigen peptides to interact with and immobilize onto a Series S Sensor Chip SA (certified) (GE Healthcare) were used. Antibodies of interest were captured onto an antigen peptide-immobilized chip, and allowed to interact to each FcγR diluted with running buffer. To regenerate and repeatedly use the chip, the antibodies captured on the chip were washed off by reacting 10 mM glycine-HCl, pH 1.5.

Binder | Ho/Con_2b
GpH7-B3 variant S324_06M/GpL16-k0 (antibody, human IgG1, kappa, also called Ho Ab S324_06M) heavy: not shown light: DIVMTQSPLSLPVTPGEPASISCQASESLVHSNRNTYLHWYLQKPGQSPQLLIYKVSNRFSGVPDRFSGSGSGTDFTLKISRVEAEDVGVYYCSQNTHVPPTFGQGTKVEIERTVAAPSVFIFPPSDEQLKSGTASVVCLLNNFYPREAKVQWKVDNALQSGNSQESVTEQDSKDSTYSLSSTLTLSKADYEKHKVYACEVTHQGLSSPVTKSFNRGEC | 104 % of HoCon Ab GpH7-B3/GpL16-k0
GpH7-B3 variant P271_09D/GpL16-k0 (antibody, human IgG1, kappa, also called Ho Ab P271_09D) heavy: not shown light: DIVMTQSPLSLPVTPGEPASISCQASESLVHSNRNTYLHWYLQKPGQSPQLLIYKVSNRFSGVPDRFSGSGSGTDFTLKISRVEAEDVGVYYCSQNTHVPPTFGQGTKVEIERTVAAPSVFIFPPSDEQLKSGTASVVCLLNNFYPREAKVQWKVDNALQSGNSQESVTEQDSKDSTYSLSSTLTLSKADYEKHKVYACEVTHQGLSSPVTKSFNRGEC | 100 % of HoCon Ab GpH7-B3/GpL16-k0
GpH7-B3 variant P238_19Q/GpL16-k0 (antibody, human IgG1, kappa, also called Ho Ab P238_19Q) heavy: not shown light: DIVMTQSPLSLPVTPGEPASISCQASESLVHSNRNTYLHWYLQKPGQSPQLLIYKVSNRFSGVPDRFSGSGSGTDFTLKISRVEAEDVGVYYCSQNTHVPPTFGQGTKVEIERTVAAPSVFIFPPSDEQLKSGTASVVCLLNNFYPREAKVQWKVDNALQSGNSQESVTEQDSKDSTYSLSSTLTLSKADYEKHKVYACEVTHQGLSSPVTKSFNRGEC | 42.7 % of HoCon Ab GpH7-B3/GpL16-k0
GpH7-B3 variant P331_20W/GpL16-k0 (antibody, human IgG1, kappa, also called Ho Ab P331_20W) heavy: not shown light: DIVMTQSPLSLPVTPGEPASISCQASESLVHSNRNTYLHWYLQKPGQSPQLLIYKVSNRFSGVPDRFSGSGSGTDFTLKISRVEAEDVGVYYCSQNTHVPPTFGQGTKVEIERTVAAPSVFIFPPSDEQLKSGTASVVCLLNNFYPREAKVQWKVDNALQSGNSQESVTEQDSKDSTYSLSSTLTLSKADYEKHKVYACEVTHQGLSSPVTKSFNRGEC | 111 % of HoCon Ab GpH7-B3/GpL16-k0
GpH7-B3 variant S239_05P/GpL16-k0 (antibody, human IgG1, kappa, also called Ho Ab S239_05P) heavy: not shown light: DIVMTQSPLSLPVTPGEPASISCQASESLVHSNRNTYLHWYLQKPGQSPQLLIYKVSNRFSGVPDRFSGSGSGTDFTLKISRVEAEDVGVYYCSQNTHVPPTFGQGTKVEIERTVAAPSVFIFPPSDEQLKSGTASVVCLLNNFYPREAKVQWKVDNALQSGNSQESVTEQDSKDSTYSLSSTLTLSKADYEKHKVYACEVTHQGLSSPVTKSFNRGEC | 61 % of HoCon Ab GpH7-B3/GpL16-k0
GpH7-B3 variant S267_19Q/GpL16-k0 (antibody, human IgG1, kappa, also called Ho Ab S267_19Q) heavy: not shown light: DIVMTQSPLSLPVTPGEPASISCQASESLVHSNRNTYLHWYLQKPGQSPQLLIYKVSNRFSGVPDRFSGSGSGTDFTLKISRVEAEDVGVYYCSQNTHVPPTFGQGTKVEIERTVAAPSVFIFPPSDEQLKSGTASVVCLLNNFYPREAKVQWKVDNALQSGNSQESVTEQDSKDSTYSLSSTLTLSKADYEKHKVYACEVTHQGLSSPVTKSFNRGEC | 185 % of HoCon Ab GpH7-B3/GpL16-k0

Second part, the binder after the results:

Ho/Con_2b | Binder
12.6 % of HoCon Ab GpH7-B3/GpL16-k0 | GpH7-B3 variant P238_20W/GpL16-k0 (antibody, human IgG1, kappa, also called Ho Ab P238_20W) heavy: not shown light: DIVMTQSPLSLPVTPGEPASISCQASESLVHSNRNTYLHWYLQKPGQSPQLLIYKVSNRFSGVPDRFSGSGSGTDFTLKISRVEAEDVGVYYCSQNTHVPPTFGQGTKVEIERTVAAPSVFIFPPSDEQLKSGTASVVCLLNNFYPREAKVQWKVDNALQSGNSQESVTEQDSKDSTYSLSSTLTLSKADYEKHKVYACEVTHQGLSSPVTKSFNRGEC
92.3 % of HoCon Ab GpH7-B3/GpL16-k0 | GpH7-B3 variant P331_10E/GpL16-k0 (antibody, human IgG1, kappa, also called Ho Ab P331_10E) heavy: not shown light: DIVMTQSPLSLPVTPGEPASISCQASESLVHSNRNTYLHWYLQKPGQSPQLLIYKVSNRFSGVPDRFSGSGSGTDFTLKISRVEAEDVGVYYCSQNTHVPPTFGQGTKVEIERTVAAPSVFIFPPSDEQLKSGTASVVCLLNNFYPREAKVQWKVDNALQSGNSQESVTEQDSKDSTYSLSSTLTLSKADYEKHKVYACEVTHQGLSSPVTKSFNRGEC
97 % of HoCon Ab GpH7-B3/GpL16-k0 | GpH7-B3 variant S267_01G/GpL16-k0 (antibody, human IgG1, kappa, also called Ho Ab S267_01G) heavy: not shown light: DIVMTQSPLSLPVTPGEPASISCQASESLVHSNRNTYLHWYLQKPGQSPQLLIYKVSNRFSGVPDRFSGSGSGTDFTLKISRVEAEDVGVYYCSQNTHVPPTFGQGTKVEIERTVAAPSVFIFPPSDEQLKSGTASVVCLLNNFYPREAKVQWKVDNALQSGNSQESVTEQDSKDSTYSLSSTLTLSKADYEKHKVYACEVTHQGLSSPVTKSFNRGEC
111 % of HoCon Ab GpH7-B3/GpL16-k0 | GpH7-B3 variant P331_15Y/GpL16-k0 (antibody, human IgG1, kappa, also called Ho Ab P331_15Y) heavy: not shown light: DIVMTQSPLSLPVTPGEPASISCQASESLVHSNRNTYLHWYLQKPGQSPQLLIYKVSNRFSGVPDRFSGSGSGTDFTLKISRVEAEDVGVYYCSQNTHVPPTFGQGTKVEIERTVAAPSVFIFPPSDEQLKSGTASVVCLLNNFYPREAKVQWKVDNALQSGNSQESVTEQDSKDSTYSLSSTLTLSKADYEKHKVYACEVTHQGLSSPVTKSFNRGEC
187 % of HoCon Ab GpH7-B3/GpL16-k0 | GpH7-B3 variant S267_06M/GpL16-k0 (antibody, human IgG1, kappa, also called Ho Ab S267_06M) heavy: not shown light: DIVMTQSPLSLPVTPGEPASISCQASESLVHSNRNTYLHWYLQKPGQSPQLLIYKVSNRFSGVPDRFSGSGSGTDFTLKISRVEAEDVGVYYCSQNTHVPPTFGQGTKVEIERTVAAPSVFIFPPSDEQLKSGTASVVCLLNNFYPREAKVQWKVDNALQSGNSQESVTEQDSKDSTYSLSSTLTLSKADYEKHKVYACEVTHQGLSSPVTKSFNRGEC

— patent US20150344570A1 (published 2015)
